Values of other authors, collected in paper PMC5176006.

Target: IscU (Escherichia coli) (UniProt P0ACD4)
UniProt P0ACD4, sequence (P0ACD4 whole entry): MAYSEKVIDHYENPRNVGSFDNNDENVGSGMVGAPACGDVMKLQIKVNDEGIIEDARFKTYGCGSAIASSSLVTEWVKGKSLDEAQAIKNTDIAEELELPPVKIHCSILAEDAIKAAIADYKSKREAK

IscS (from UniProt P0A6B7)
Kd: 1000 nM
